# The supplement of paper PMC9170038
# Columns and labels:
# [1] = tested on: MS2 coat protein; experiment: apparent KD of MS2 coat protein; higher = weaker reporter binding; details: Eterna round: R101
# Protocol: (§1)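 RNA-MaP: designed FMN/MS2 RNA switches (84 nt design region) are transcribed on-chip within common flanks and titrated with SNAP-549-labelled MS2 coat protein (about 1-3000 nM) in 100 mM Tris pH 7.5, 80 mM KCl, 4 mM MgCl2, without or with 200 uM FMN. Median apparent KD per design; activation ratio = KD,OFF / KD,ON.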
# [2] = tested on: MS2 coat protein; experiment: apparent KD of MS2 coat protein; designed switch direction (-1 OFF switch, 1 ON switch): 1; higher = weaker reporter binding; details: Eterna round: R98
# Protocol: as §1
# [3] = tested on: MS2 coat protein; experiment: apparent KD of MS2 coat protein; designed switch direction (-1 OFF switch, 1 ON switch): -1; higher = weaker reporter binding; details: Eterna round: R98
# Protocol: as §1
Sequence,apparent KD of MS2 coat protein ([1]; input ligand: FMN 200 uM) [µM],apparent KD of MS2 coat protein ([1]; input ligand: none) [µM],apparent KD of MS2 coat protein ([2]; input ligand: FMN 200 uM) [µM],apparent KD of MS2 coat protein ([2]; input ligand: none) [µM],also measured
AAAUAAAUCGAAGGAUAUGACCCUCGAGGUGACUAAAAGUCACCUCGAGGGUCAGAAGGUCGAGGAUCACCCGAUCUAAAUAAA [#SharedSequence SLExNG1: 2-1] (puzzle (switch architecture): Small Loop Exclusion NG 1),0.259,0.0162,–,–,–
AAAGAUUUUCAAGGAUAUGACUCCGAAACGGAGUCAGAAGGUGAGGAUCACCCACCUAGCUCAGCGUCGAAAGACGCUGAGCAA [#SharedSequence ExNG1 - 27] (puzzle (switch architecture): Exclusion NG 1),0.103,0.0135,–,–,–
GUCAGCUCGUGAGGAUAUACAUCACUGCUUCGGCAGUGUAUUAAGAUAACAUGAGGAUCACCCAUGUAGAAGGCACGAGCUGAU [#MS2NeighbourBaseDeletion - ENG2/2-A2] (puzzle (switch architecture): Exclusion NG 2),0.0085,0.00549,–,–,–
CGGGAUACGAAGGGCGAAAGCCCACAUGAGGAUCACCCAUGUAGAAGGCGGGCCGCAACGCGGCCCGAGGAUAUACAGUAUCCA [#my 5th design] (puzzle (switch architecture): Inverted Exclusion NG 3),0.0105,0.00572,–,–,–
AUCAGCUCGUCAGGAUAUACGUCACUGCGUCAGCAGUGUGGUAAGAUCACAUGAGGAUCACCCAUGUAGAAGGGACGAGCUGAU [#MiniMS2Turnoff - Ex NG2 #82] (puzzle (switch architecture): Exclusion NG 2),0.273,0.0137,–,–,–
UCCGCUAUCGCAGGAUAUUACAUGGGAAAGAAUACAUGAGGAUCACCCAUGUAAAAGAUCAUAAAUAAGAAGGGCGAUAGCGGA [Lame State 8 - Jieux - Same State NG 2],–,–,0.123,0.654,–
AGACCUGCUCAGAAGGCGGGUGCGAGGCUGGAAACAGCCUCGAAUUAAAAUCUUCGAGGAUCACCCGAGGAUAUGAGCAGGUCA [#SharedSequence - IExNG2: 16] (puzzle (switch architecture): Inverted Exclusion NG 2),0.019,0.0542,–,–,–
AGAGCCUCGUGAGGAUAUACAUGAGGAUCACCCAUGUAAUAGGAUGAACGGAGGAAACUCCGAAUGUAGAAGGCACGAGGCUCA [Exclusion NG 2/11-B1],–,–,–,–,apparent KD of MS2 coat protein ([3]; input ligand: FMN 200 uM): 0.686 µM; apparent KD of MS2 coat protein ([3]; input ligand: none): 0.0745 µM
UAAAUAAAUCCUAGAGGAUCACCCUAGGAUAUGAGGCUGCACCUCGGAUAAUCCGAGGUGCAGCCUCAGAAGGAGGAAAAUAAA [#SharedSequence - SLExNG3: 4-2] (puzzle (switch architecture): Small Loop Exclusion NG 3),0.00771,0.00816,–,–,–
GUAGCAUACCGAGGAUAUUCAUACCGGAAACGGACAUGAGGAUCACCCAUGUAAAUUCUAAAUUGGGAGAAGGCGGAAUGCUAC [Xeonanis 75 6],–,–,0.0466,0.41,–
CCCUUCAGAAGAGGGACAUGAGGAUCACCCAUGUAGGCUGCACAGGAUAUCGAUCGGAGGCGGUACGAGAAGGGUGAUGUCAUU [Riorrebi],–,–,0.0279,0.0362,–
"CGAGACACUUGAGGAUAUGCUCAGGAAUACUGAGCAGAAGGCAGGGAAACCUGAGGAUCACCCAGGUAACUGGAAAGUCUCGAA [Same State NG1 - A3C, U17G Submission 5A]",–,–,0.019,0.0292,–
UAGAUAUGGUGAGGAUAUGCAAAGGAUCACCUUGUAGAAGGCAUCAGGGUAGAAGGUGCAAGGAUCACCUGUAAGGAUAUAUCC [pwkr2 ssNG1 DX.32],–,–,0.448,1.67,–
GCAGAAGGUGCGGAGGAUCACCCUGUAAGGAUAUGCAUUAGCAAGGAUAUACAGAGGAUCACCCUGUAGAAGGUGCACUUCUGA [pwkr2 ssNG3 DX.8],–,–,2.12,0.85,–
"GACGGAUUCUUAGGAUAUGCUCAGGAAUACUGAGCAGAAGGAAGAAUAACCUGAGGAUCACCCAGGUAAUACUGAACGUCAAUA [Same State NG1 - A3C, U17G Submission 9A]",–,–,0.0237,0.0581,–
GCUGUCGCGUGAGGAUAUGGUCGGCAGUGCUGACCAGAAGGCAUGUCGAUAGACAUGAGGAUCACCCAUGUGGUUAGGGCGGCU [salish99_SSNG1_R02_015],–,–,0.464,0.491,–
GGUGUUAACACAGGAUAUCUGCGUAAACAGCGCGGAGAAGGGUGGGUGACCAAGGACACAUGAGGAUCACCCAUGUACCCUUAA [Timadier] (puzzle (switch architecture): Same State NG 1),0.184,0.0727,–,–,–

Sequence,apparent KD of MS2 coat protein ([1]; input ligand: FMN 200 uM) [µM],apparent KD of MS2 coat protein ([1]; input ligand: none) [µM],apparent KD of MS2 coat protein ([2]; input ligand: FMN 200 uM) [µM],apparent KD of MS2 coat protein ([2]; input ligand: none) [µM],also measured
GUCACGGUUAAUUCCGUGACGCGCAAACCUUGAGGAUCACCCAAGGAUAUCGACGUCAAUGACGUCGAGAAGGUGGUUGAGCGC [#SharedSequence] (puzzle (switch architecture): Exclusion NG 3),0.0956,–,–,–,–
CCAAUAUAGUGAGGAUAUGCACAGGAUCACCGUGUAGAAGGCAUCAGGUAGAAGGUGCAGAGGAUCACCCUGUAAGGAUAUACA [pwkr2 ssNG1 DX.7],–,–,0.129,0.406,–
ACGUCCCGCAGAGGAUAUGUUGUUCGGCCUACAUGAGGAUCACCCAUGUCAAAGGGCUGAUCCCGACAGAAGGCUGAAGGAUAC [Qudiator],–,–,0.0248,0.0575,–
UAAAUAAAUCCUAGAGGAUCACCCUAGGAUAUCACCGUCGAGGUGCCAUAAUGGCACCUCGACGGUGAGAAGGAGGGUAAUAAA [#SharedSequence - SLExNG3: 1-1] (puzzle (switch architecture): Small Loop Exclusion NG 3),0.0293,0.0138,–,–,–
CGCUCGCCGAGAGGAUAUGCAUUGGUGGGCGGUCCUGAACAUGAGGAUCACCCAUGUAUCAGUAAGCAGAAGGCUUGGUAGACG [Usesreed],–,–,–,–,apparent KD of MS2 coat protein ([3]; input ligand: FMN 200 uM): 0.0165 µM; apparent KD of MS2 coat protein ([3]; input ligand: none): 0.0201 µM
UAUAUUUAGGCAGGAUAUACAUGUAUAUAUAAUUUUUUAUAUAUUAUUACAUGAGGAUCACCCAUGUAGAAGGGCCUUAUUAUA [LRO040_Exclusion NG 2],–,–,–,–,apparent KD of MS2 coat protein ([3]; input ligand: FMN 200 uM): 0.0629 µM; apparent KD of MS2 coat protein ([3]; input ligand: none): 0.0512 µM
UCACUCACGUCAGGAUAUGGAUCGGAAAACGAUCCAGAAGGGACCUGCAAACUUGAGGAUCACCCAGGUUCCAAUAACGAGUGA [SameSame 12 - Jieux - Same State NG 1],–,–,0.194,0.307,–
GGUUGACGACAAUUACAUGAGGAUCACCCAUGUUGUGGGAUGCAGGAUAUGUGGUAUAUUAAUUAACAGAAGGGCAAUAAUUUU [JR_SSNG3_Sub062],–,–,0.051,0.0338,–
GGUCGACCUCAAGGAUAUGGACUGCAAAGCAGUCCAGAAGGUGAGGAUCACCCAUCUACGGUCAGGAAACUGACCGAUCGACCA [#SharedSequence - ExNG1-6] (puzzle (switch architecture): Exclusion NG 1),0.914,0.308,–,–,–
GGAUCGCUUGGAGGAUAUCCAACUAUCCUAGUUGGAGAAGGCCAAGCUACAGAGCUAAGCUUGGAAGUCACUUCGGAUCCACAC [pwkr ssNG1 F9.4.4],–,–,0.0392,0.0217,–
GCCAACUUAUGAGGAUAUGGCACCUUAUUGGUGCCAGAAGGCAUGUCAAUUGACAUGAGGAUCACCCAUGUAUUAUAGUUGGCA [Fiskers NG1ss - 20 m2],–,–,0.112,0.724,–
GCCAUCGUAUGAGGAUAUGGCACCGAAACGGUGCCAGAAGGCAUGUCAAUAGACAUGAGGAUCACCCAUGUAUUAUCGAUGGCA [MatMod 1 - Jieux - Same State NG 1],–,–,0.0469,0.469,–
"AAUAAUCAGGUAGGAUAUGCUCAGGAAUACUGAGCAGAAGGACUAGAAACCUGAGGAUCACCCAGGUAACUGGACCGGAAACGG [Same State NG1 - A3C, U17G Submission 6C]",–,–,0.0423,0.0811,–
AAUAAUCUUUAAGGAUAUGACUCCGAAACGGAGUCAGAAGGUGAGGAUCACCCAUCUAGCUCAGGGUCGAAAGACCCUGAGCAA [#SharedSequence - ExNG1-11] (puzzle (switch architecture): Exclusion NG 1),0.101,0.0496,–,–,–
ACAGGUCGUGAGAAGGCGUGUGGCACCGUCGAAAGACGGUGCAAUUAAAAUCUUCGAGGAUCACCCGAGGAUAUCACGACCUGA [#SharedSequence - IExNG2: 19] (puzzle (switch architecture): Inverted Exclusion NG 2),0.0322,0.0122,–,–,–
"UUUUUUUUUUUUUACGCUUUGCGACGAGAAGGUACACAUGAGGAUCACCCAUGUCGAUUGGGAGGUAAGGAUAUUGGAUUGCGU [Inverted Small Loop Same State NG 3 Solution, Uracil-heavy] (puzzle (switch architecture): Inverted Small Loop Same State NG 3)",0.000483,0.0184,–,–,–
UAAAUAAAUCCUAGAGGAUCACCCUAGGAUAUGAGGCUGCACCUCGGAUAAUCCGAGGUGCAGCCUCAGAAGGAGGUUGAUAAA [#SharedSequence - SLExNG3: 6-2] (puzzle (switch architecture): Small Loop Exclusion NG 3),0.0118,0.0105,–,–,–
